Legend:
Test in all cases: IEDB peptide-MHC binding, purified MHC/competitive/radioactivity; filed as Kd, often an IC50 or EC50 that approximates it; ≥ and ≤ were set here for values at or beyond the usual limits of such assays
HLA-A*03:01 = biological target: HLA-A*03:01
HLA-A*68:01 = biological target: HLA-A*68:01
HLA-A*11:01 = biological target: HLA-A*11:01
HLA-A*31:01 = biological target: HLA-A*31:01
HLA-A*33:01 = biological target: HLA-A*33:01
[1] = source organism: Vaccinia virus WR
[2] = source organism: Dengue virus 3 Martinique/1243/1999
[3] = source organism: SARS coronavirus Tor2
[4] = source organism: Dengue virus 1 Brazil/97-11/1997
[5] = source organism: Lassa virus Josiah
[6] = source organism: Dengue virus 2 Jamaica/1409/1983
[7] = source organism: Mammarenavirus machupoense
[8] = source organism: Dengue virus 4 Philippines/H241/1956

Row | Sequence | Kd (HLA-A*03:01; [1]) | Kd (HLA-A*68:01; [1]) | Kd (HLA-A*11:01; [1]) | Kd (HLA-A*31:01; [1]) | Kd (HLA-A*33:01; [1]) | other results
1 | KSVTKSSSWK | 10 nM | 79 nM | 13.8 nM | 376 nM | ≥ 55700 nM | –
2 | SMGFKVTTRR | 97.2 nM | 213 nM | 1050 nM | 22.1 nM | 747 nM | –
3 | VFTDISMSLY | 8240 nM | 2300 nM | 2290 nM | 11600 nM | 6760 nM | –
4 | EKVETWALR | – | – | – | – | – | Kd (HLA-A*68:01; [2]): ≥ 22900 nM; Kd (HLA-A*33:01; [2]): 74.9 nM
5 | VSLLRSTSQK | – | – | – | – | – | Kd (HLA-A*03:01; [3]): 11.6 nM; Kd (HLA-A*68:01; [3]): 6330 nM; Kd (HLA-A*11:01; [3]): 172 nM; Kd (HLA-A*31:01; [3]): 175 nM; Kd (HLA-A*33:01; [3]): 2540 nM
6 | AQCFKMFYK | – | – | – | – | – | Kd (HLA-A*03:01; [3]): 25.6 nM; Kd (HLA-A*68:01; [3]): 177 nM; Kd (HLA-A*11:01; [3]): 2.52 nM; Kd (HLA-A*31:01; [3]): 6.24 nM; Kd (HLA-A*33:01; [3]): 878 nM
7 | LVMAFIAFLR | – | – | – | – | – | Kd (HLA-A*68:01; [4]): 31.8 nM; Kd (HLA-A*11:01; [4]): 1380 nM; Kd (HLA-A*31:01; [4]): 73.5 nM; Kd (HLA-A*33:01; [4]): 106 nM
8 | EIKQGRVNK | 640 nM | 88.4 nM | 517 nM | ≥ 51300 nM | 3260 nM | –
9 | THLGPQFCK | – | – | – | – | – | Kd (HLA-A*03:01; [5]): 880 nM; Kd (HLA-A*68:01; [5]): 338 nM; Kd (HLA-A*11:01; [5]): 284 nM; Kd (HLA-A*31:01; [5]): 15900 nM; Kd (HLA-A*33:01; [5]): ≥ 77700 nM
10 | DADPPIPYSR | ≥ 70100 nM | 509 nM | 16400 nM | 10100 nM | 2690 nM | –
11 | KSISSMTIR | 1280 nM | 832 nM | 281 nM | 3.64 nM | 7710 nM | –
12 | RTLAKEGIKR | – | – | – | – | – | Kd (HLA-A*31:01; [6]): 14.3 nM
13 | LLNGQGPMK | – | – | – | – | – | Kd (HLA-A*03:01; [2]): 16.2 nM
14 | DLPSGFNTLK | – | – | – | – | – | Kd (HLA-A*03:01; [3]): 2300 nM; Kd (HLA-A*68:01; [3]): 11 nM; Kd (HLA-A*11:01; [3]): 1220 nM; Kd (HLA-A*31:01; [3]): ≥ 36700 nM; Kd (HLA-A*33:01; [3]): 10400 nM
15 | YTIGTTHFQR | – | – | – | – | – | Kd (HLA-A*68:01; [6]): 17.3 nM; Kd (HLA-A*31:01; [6]): 44.3 nM; Kd (HLA-A*33:01; [6]): 6.12 nM
16 | IFMRDWNSK | 11700 nM | 2390 nM | 8210 nM | 8520 nM | 8940 nM | –
17 | VTLADAGFMK | – | – | – | – | – | Kd (HLA-A*03:01; [3]): 33 nM; Kd (HLA-A*68:01; [3]): 135 nM; Kd (HLA-A*11:01; [3]): 3.92 nM; Kd (HLA-A*31:01; [3]): 1200 nM; Kd (HLA-A*33:01; [3]): 11700 nM
18 | HLKCRLKMDK | – | – | – | – | – | Kd (HLA-A*03:01; [4]): 68 nM
19 | SSPPIPMSR | 7270 nM | 764 nM | 406 nM | 10400 nM | 15500 nM | –
20 | VVDTFISYNR | 2540 nM | 80.5 nM | 343 nM | 25.2 nM | 101 nM | –

Row | Sequence | Kd (HLA-A*03:01; [1]) | Kd (HLA-A*68:01; [1]) | Kd (HLA-A*11:01; [1]) | Kd (HLA-A*31:01; [1]) | Kd (HLA-A*33:01; [1]) | other results
21 | CTTTGEHRR | – | – | – | – | – | Kd (HLA-A*68:01; source organism: Dengue virus 2 Peru/IQT2913/1996): 27.6 nM
22 | AALSEGVYR | – | – | – | – | – | Kd (HLA-A*31:01; source organism: Dengue virus 4 Dominica/814669/1981): 169 nM
23 | DICSKHMDAR | ≥ 47100 nM | 605 nM | ≥ 69800 nM | 1480 nM | 126 nM | –
24 | MLVTPSMTMR | – | – | – | – | – | Kd (HLA-A*68:01; [2]): 54.7 nM; Kd (HLA-A*31:01; [2]): 111 nM
25 | ASKTINALVY | 761 nM | ≥ 41800 nM | 1010 nM | 11100 nM | ≥ 70000 nM | –
26 | KVLRENTSPK | – | – | – | – | – | Kd (HLA-A*03:01; source organism: Homo sapiens): 28.9 nM
27 | SSSIDVDKR | ≥ 78000 nM | 146 nM | 4750 nM | 8950 nM | ≥ 35000 nM | –
28 | SSNKDPITVY | ≥ 70100 nM | ≥ 42800 nM | 1880 nM | ≥ 50900 nM | ≥ 70000 nM | –
29 | STCSAVTDR | ≥ 31000 nM | 55.1 nM | 31.2 nM | 119 nM | 1390 nM | –
30 | TVCYVLTGR | – | – | – | – | – | Kd (HLA-A*68:01; [6]): 15.2 nM; Kd (HLA-A*31:01; [6]): 10.3 nM; Kd (HLA-A*33:01; [6]): 1.6 nM
31 | GSWATSSFR | 111 nM | 54.1 nM | 7.38 nM | 0.56 nM | 226 nM | –
32 | MYFHRRDLR | – | – | – | – | – | Kd (HLA-A*68:01; [6]): 346 nM; Kd (HLA-A*31:01; [6]): 0.137 nM; Kd (HLA-A*33:01; [6]): 5.64 nM
33 | LNNSFYYMK | – | – | – | – | – | Kd (HLA-A*03:01; [7]): 7240 nM; Kd (HLA-A*68:01; [7]): 67.7 nM; Kd (HLA-A*11:01; [7]): 619 nM; Kd (HLA-A*31:01; [7]): 26.4 nM; Kd (HLA-A*33:01; [7]): ≥ 77700 nM
34 | IQVTISSYK | – | – | – | – | – | Kd (HLA-A*03:01; [3]): 15.4 nM; Kd (HLA-A*68:01; [3]): 274 nM; Kd (HLA-A*11:01; [3]): 10.8 nM; Kd (HLA-A*31:01; [3]): 139 nM; Kd (HLA-A*33:01; [3]): 7950 nM
35 | WIQYDKHCY | 5820 nM | 2980 nM | 39.5 nM | 5660 nM | ≥ 60400 nM | –
36 | MSTYSDICSK | ≥ 70100 nM | ≥ 70200 nM | ≥ 69800 nM | ≥ 70000 nM | ≥ 70000 nM | –
37 | VAALDGTFQR | ≥ 34100 nM | 40.1 nM | 681 nM | 124 nM | 675 nM | –
38 | TISKDNLER | 2620 nM | 18.1 nM | 170 nM | 175 nM | 490 nM | –
39 | TTSKMLLNR | – | – | – | – | – | Kd (HLA-A*68:01; [8]): 59.8 nM; Kd (HLA-A*11:01; [8]): 178 nM
40 | QITTDDLVK | ≥ 38900 nM | 436 nM | 803 nM | 207 nM | 3750 nM | –

Reference: the Immune Epitope Database (IEDB)
